Target: recombinant MHJ_0125 (polyhistidine fusion of the M42 glutamyl aminopeptidase MHJ_0125 of Mycoplasma hyopneumoniae) (Mycoplasma hyopneumoniae (strain J))
Test: SEC; 10 µg purified rMHJ_0125 on Superdex 200 (3.2 x 300 mm), 20 mM Tris-HCl pH 8.0, 50 µl/min; markers blue dextran, apoferritin, myoglobin

recombinant MHJ_0125 (polyhistidine fusion of the M42 glutamyl aminopeptidase MHJ_0125 of Mycoplasma hyopneumoniae) (enzyme)
stoichiometry N: 12

Reference: article PMC3718333
